Source: patent US20190062420A1 (Janssen / Centocor, published 2019)

T1: human FcγRIIB (NM_004001) expressed on cells (human, UniProt P31994 43-310)
T1 sequence: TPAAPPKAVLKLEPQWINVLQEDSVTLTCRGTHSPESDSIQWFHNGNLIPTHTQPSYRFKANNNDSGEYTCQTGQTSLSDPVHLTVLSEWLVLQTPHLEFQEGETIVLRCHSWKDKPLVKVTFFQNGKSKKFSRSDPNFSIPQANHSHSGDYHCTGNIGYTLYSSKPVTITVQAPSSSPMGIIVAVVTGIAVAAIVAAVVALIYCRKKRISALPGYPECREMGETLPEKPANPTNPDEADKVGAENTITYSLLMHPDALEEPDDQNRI

T2: FcγRIIB protein (human, UniProt P31994 43-217, biotinylated (SureLINK Biotin Kit) in the ELISA of Example 1)
T2 sequence: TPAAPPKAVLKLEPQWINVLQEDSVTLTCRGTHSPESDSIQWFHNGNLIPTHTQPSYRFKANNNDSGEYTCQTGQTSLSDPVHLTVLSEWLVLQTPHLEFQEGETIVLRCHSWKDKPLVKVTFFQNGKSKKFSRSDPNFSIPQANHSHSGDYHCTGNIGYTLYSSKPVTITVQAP

T3: FcγRIIA protein (human, UniProt P12318 36-217, biotinylated (SureLINK Biotin Kit) in the ELISA of Example 1)
T3 sequence: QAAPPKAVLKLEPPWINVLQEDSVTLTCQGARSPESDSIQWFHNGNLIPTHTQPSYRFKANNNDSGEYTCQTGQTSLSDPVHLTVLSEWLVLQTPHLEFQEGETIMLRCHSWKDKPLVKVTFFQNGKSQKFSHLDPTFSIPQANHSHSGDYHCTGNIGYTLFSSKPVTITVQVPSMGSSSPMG

T4: human OX40 expressed on HEK-Blue: OX40 cells (human, UniProt P43489 29-277)
T4 construct: also called CD134
T4 sequence: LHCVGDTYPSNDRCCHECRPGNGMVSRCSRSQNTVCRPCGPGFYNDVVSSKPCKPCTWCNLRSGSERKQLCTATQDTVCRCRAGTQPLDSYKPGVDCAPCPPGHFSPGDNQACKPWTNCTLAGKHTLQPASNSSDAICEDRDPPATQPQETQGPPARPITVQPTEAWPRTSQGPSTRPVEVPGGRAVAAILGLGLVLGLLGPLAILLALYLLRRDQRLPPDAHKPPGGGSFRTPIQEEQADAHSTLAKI

T5: human FcγRIIA (NM_021642) expressed on cells (human, UniProt P12318 36-317)
T5 sequence: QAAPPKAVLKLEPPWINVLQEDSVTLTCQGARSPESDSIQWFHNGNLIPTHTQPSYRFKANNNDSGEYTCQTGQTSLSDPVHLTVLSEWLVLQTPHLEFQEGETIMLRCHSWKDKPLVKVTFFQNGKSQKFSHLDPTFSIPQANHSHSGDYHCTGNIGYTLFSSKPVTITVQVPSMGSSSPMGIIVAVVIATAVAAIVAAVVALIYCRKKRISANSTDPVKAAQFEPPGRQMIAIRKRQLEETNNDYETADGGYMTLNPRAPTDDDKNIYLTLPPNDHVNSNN


How the values were obtained:
[1] = target: T6, human FcγRI (NM_000566) expressed on cells (human, UniProt P12314 16-374); assay: flow cytometry; Expi293F cells transfected with FcγRI
T6 construct: Transiently expressed on Expi293F cells
Experimental: (§1) Plasmids expressing cDNAs encoding human FcγRI (NM_000566) (SEQ ID NO: 44), FcγRIIA (NM_021642) (SEQ ID NO: 2), FcγRIIB (NM_004001) (SEQ ID NO: 3), and FcγRIIIA (NM_000569) (SEQ ID NO: 45) (Origene) were transiently transfected into Expi293F cells by ExpiFectamine293 transfection kit (Life Technologies). Flow cytometry assays were performed 48 h after transfection.
(§2) 2×10⁵ cells per well were seeded in 96-well plate and blocked in BSA Stain Buffer (BD Biosciences, San Jose, USA) for 30 min at 4° C. Cells were incubated with test mAbtyrin on ice for 1.5 h at 4° C. After being washed twice with BSA stain buffer, the cells were incubated with R-PE labeled anti-human or anti-mouse IgG secondary antibody (Jackson Immunoresearch Laboratories) for 45 min at 4° C. The cells were washed twice in stain buffer and then resuspended in 150 μL of Stain Buffer containing 1:200 diluted DRAQ7 live/dead stain (Cell Signaling Technology, Danvers, USA). PE and DRAQ7 signals of the stained cells were detected by Miltenyi MACSQuant flow cytometer (Miltenyi Biotec, Auburn, USA) using B2 and B4 channel respectively. Live cells were gated on DRAQ7 exclusion and the geometric mean fluorescence signals were determined for at least 10,000 live events collected. FlowJo software (Tree Star) was used for analysis. Data was plotted as the logarithm of antibody concentration versus mean fluorescence signals. Nonlinear regression analysis was performed by GraphPad Prism 6 (GraphPad Software, Inc.) and EC₅₀ values were calculated.

[2] = target: T1, human FcγRIIB (NM_004001) expressed on …; assay: cell-based or functional assay
[3] = target: T2, FcγRIIB protein; assay: cell-based or functional assay
[4] = target: T3, FcγRIIA protein; assay: cell-based or functional assay
[5] = target: T1, human FcγRIIB (NM_004001) expressed on …; assay: flow cytometry; Raji cells (express predominantly FcγRIIB)
Experimental: as §2
Raji cell is a cell line derived from B cells that express predominantly FcγRIIB. The binding of mAbtyrins on Raji cells were investigated by flow cytometry assay described for testing mAbtyrin binding to FcγR. Binding of the mAbtyrins were detected by flow cytometry using a PE-labeled Goat F(ab′) against Human IgG(γ).

[6] = target: T4, human OX40 expressed on HEK-Blue: OX40 …; assay: flow cytometry; HEK-Blue: OX40 cells
Outline: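 HEK-Blue Null 1 cells stably transfected with human OX40 were blocked, then incubated with mAbtyrin for 1.5 h at 4 °C. Binding was detected with a PE anti-human IgG F(ab′)₂ secondary, gating on DRAQ7-excluding live cells and taking geometric mean fluorescence. EC50 came from nonlinear regression versus log antibody concentration.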

[7] = target: T7, human FcγRIIIA (NM_000569) expressed on cells (human, UniProt P08637 17-254); assay: flow cytometry; Expi293F cells transfected with FcγRIIIA
T7 construct: Transiently expressed on Expi293F cells; also used here for FcγRIIIA on the engineered effector cells of the ADCC reporter bioassay (Promega); also called FcγIIIA
Experimental: as §1, §2

[8] = target: T5, human FcγRIIA (NM_021642) expressed on …; assay: cell-based or functional assay
[9] = target: T7, human FcγRIIIA (NM_000569) expressed on …; assay: cell-based or functional assay
[10] = target: T1, human FcγRIIB (NM_004001) expressed on …; assay: flow cytometry; Expi293F cells transfected with FcγRIIB
Experimental: as §1, §2

[11] = target: T5, human FcγRIIA (NM_021642) expressed on …; assay: flow cytometry; Expi293F cells transfected with FcγRIIA
Experimental: as §1, §2

T6 sequence (P12314 16-374 limits assumed): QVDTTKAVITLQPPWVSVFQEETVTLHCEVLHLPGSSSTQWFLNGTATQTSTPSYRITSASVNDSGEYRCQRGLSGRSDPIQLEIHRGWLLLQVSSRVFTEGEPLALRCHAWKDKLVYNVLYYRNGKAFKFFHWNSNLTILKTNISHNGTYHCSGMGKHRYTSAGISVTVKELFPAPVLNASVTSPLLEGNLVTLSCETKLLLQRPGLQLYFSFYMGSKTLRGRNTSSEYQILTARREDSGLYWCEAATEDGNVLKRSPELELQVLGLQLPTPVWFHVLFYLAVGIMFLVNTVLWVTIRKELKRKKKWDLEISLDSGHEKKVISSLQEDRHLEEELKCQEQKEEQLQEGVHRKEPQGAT
T7 sequence (P08637 17-254 limits assumed): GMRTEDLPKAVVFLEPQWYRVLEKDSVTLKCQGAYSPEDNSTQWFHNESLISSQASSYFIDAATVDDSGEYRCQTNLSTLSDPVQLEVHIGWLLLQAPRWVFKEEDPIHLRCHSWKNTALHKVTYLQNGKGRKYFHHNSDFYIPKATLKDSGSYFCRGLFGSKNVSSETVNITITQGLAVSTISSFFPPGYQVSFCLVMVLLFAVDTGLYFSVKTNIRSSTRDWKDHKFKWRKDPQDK

EC50 [1]	% activity at 1 µg/ml with Raji cells (HEK-Blue: OX40 NF-κB reporter) [2]	IFNγ production by activated CD4 T cells, plate-coated FcγRIIb [3]	TNFα production by activated CD4 T cells, plate-coated FcγRIIb [3]	IFNγ production by activated CD4 T cells, plate-coated FcγRIIA [4]	TNFα production by activated CD4 T cells, plate-coated FcγRIIA [4]	EC50 [5]	EC50 [6]	EC50 [7]	ADCP EC50 [8]	ADCC (fold activation) at 1 µg/ml [9]	EC50 [10]	EC50 [11]	Binder
> 10 µg/mL	7%	76 pg/mL	29 pg/mL	89 pg/mL	28 pg/mL	1.2 µg/mL	0.161 µg/mL	> 10 µg/mL	0.012 µg/mL	1 fold	1.01 µg/mL	0.042 µg/mL	OX40SF2IgG2sigma_R2BS29_HC-N (bispecific antibody, mAbtyrin: R2BS29 FN3 domain and linker at the N-terminus of the heavy chain of OX40SF2IgG2sigma; also called mAbtyrin) heavy: LPAPKNLVVSRVTEDSARLSWTAPDAAFDSFPIYYWEYRVGGEAIVLTVPGSERSYDLTGLKPGTEYFVYINGVKGGEESRPLSAIFTTGGGGSGGGGSGGGGSGGGGSQVQLVQSGAEVKKPGSSVKVSCKASGYTFKDYTMHWVRQAPGQGLEWIGGIYPNNGGSTYNQNFKDRVTLTADKSTSTAYMELSSLRSEDTAVYYCARMGYHGPHLDFDVWGQGTTVTVSSASTKGPSVFPLAPCSRSTSESTAALGCLVKDYFPEPVTVSWNSGALTSGVHTFPAVLQSSGLYSLSSVVTVPSSNFGTQTYTCNVDHKPSNTKVDKTVERKCCVECPPCPAPPAAASSVFLFPPKPKDTLMISRTPEVTCVVVDVSAEDPEVQFNWYVDGVEVHNAKTKPREEQFNSTFRVVSVLTVLHQDWLNGKEYKCKVSNKGLPSSIEKTISKTKGQPREPQVYTLPPSREEMTKNQVSLTCLVKGFYPSDIAVEWESNGQPENNYKTTPPMLDSDGSFFLYSKLTVDKSRWQQGNVFSCSVMHEALHNHYTQKSLSLSPGK light: DIQMTQSPSSLSASVGDRVTITCKASQDVGAAVAWYQQKPGKAPKLLIYWASTRHTGVPSRFSGSGSGTDFTLTISSLQPEDFATYYCQQYINYPLTFGGGTKVEIKRTVAAPSVFIFPPSDEQLKSGTASVVCLLNNFYPREAKVQWKVDNALQSGNSQESVTEQDSKDSTYSLSSTLTLSKADYEKHKVYACEVTHQGLSSPVTKSFNRGEC
> 10 µg/mL	76%	89 pg/mL	30 pg/mL	153 pg/mL	30 pg/mL	3.44 µg/mL	0.196 µg/mL	> 10 µg/mL	0.0165 µg/mL	1 fold	0.941 µg/mL	0.054 µg/mL	OX40SF2IgG2sigma_R2BS29_LC-C (bispecific antibody, mAbtyrin: linker and R2BS29 FN3 domain at the C-terminus of the light chain of OX40SF2IgG2sigma; also called mAbtyrin) heavy: QVQLVQSGAEVKKPGSSVKVSCKASGYTFKDYTMHWVRQAPGQGLEWIGGIYPNNGGSTYNQNFKDRVTLTADKSTSTAYMELSSLRSEDTAVYYCARMGYHGPHLDFDVWGQGTTVTVSSASTKGPSVFPLAPCSRSTSESTAALGCLVKDYFPEPVTVSWNSGALTSGVHTFPAVLQSSGLYSLSSVVTVPSSNFGTQTYTCNVDHKPSNTKVDKTVERKCCVECPPCPAPPAAASSVFLFPPKPKDTLMISRTPEVTCVVVDVSAEDPEVQFNWYVDGVEVHNAKTKPREEQFNSTFRVVSVLTVLHQDWLNGKEYKCKVSNKGLPSSIEKTISKTKGQPREPQVYTLPPSREEMTKNQVSLTCLVKGFYPSDIAVEWESNGQPENNYKTTPPMLDSDGSFFLYSKLTVDKSRWQQGNVFSCSVMHEALHNHYTQKSLSLSPGK light: DIQMTQSPSSLSASVGDRVTITCKASQDVGAAVAWYQQKPGKAPKLLIYWASTRHTGVPSRFSGSGSGTDFTLTISSLQPEDFATYYCQQYINYPLTFGGGTKVEIKRTVAAPSVFIFPPSDEQLKSGTASVVCLLNNFYPREAKVQWKVDNALQSGNSQESVTEQDSKDSTYSLSSTLTLSKADYEKHKVYACEVTHQGLSSPVTKSFNRGECGGGGSGGGGSGGGGSGGGGSMLPAPKNLVVSRVTEDSARLSWTAPDAAFDSFPIYYWEYRVGGEAIVLTVPGSERSYDLTGLKPGTEYFVYINGVKGGEESRPLSAIFTT
> 10 µg/mL	11%	72 pg/mL	29 pg/mL	103 pg/mL	29 pg/mL	3.37 µg/mL	0.431 µg/mL	> 10 µg/mL	0.0089 µg/mL	1 fold	1.02 µg/mL	0.046 µg/mL	OX40SF2IgG2sigma_R2BS29_LC-N (bispecific antibody, mAbtyrin: R2BS29 FN3 domain and linker at the N-terminus of the light chain of OX40SF2IgG2sigma; also called mAbtyrin) heavy: QVQLVQSGAEVKKPGSSVKVSCKASGYTFKDYTMHWVRQAPGQGLEWIGGIYPNNGGSTYNQNFKDRVTLTADKSTSTAYMELSSLRSEDTAVYYCARMGYHGPHLDFDVWGQGTTVTVSSASTKGPSVFPLAPCSRSTSESTAALGCLVKDYFPEPVTVSWNSGALTSGVHTFPAVLQSSGLYSLSSVVTVPSSNFGTQTYTCNVDHKPSNTKVDKTVERKCCVECPPCPAPPAAASSVFLFPPKPKDTLMISRTPEVTCVVVDVSAEDPEVQFNWYVDGVEVHNAKTKPREEQFNSTFRVVSVLTVLHQDWLNGKEYKCKVSNKGLPSSIEKTISKTKGQPREPQVYTLPPSREEMTKNQVSLTCLVKGFYPSDIAVEWESNGQPENNYKTTPPMLDSDGSFFLYSKLTVDKSRWQQGNVFSCSVMHEALHNHYTQKSLSLSPGK light: LPAPKNLVVSRVTEDSARLSWTAPDAAFDSFPIYYWEYRVGGEAIVLTVPGSERSYDLTGLKPGTEYFVYINGVKGGEESRPLSAIFTTGGGGSGGGGSGGGGSGGGGSDIQMTQSPSSLSASVGDRVTITCKASQDVGAAVAWYQQKPGKAPKLLIYWASTRHTGVPSRFSGSGSGTDFTLTISSLQPEDFATYYCQQYINYPLTFGGGTKVEIKRTVAAPSVFIFPPSDEQLKSGTASVVCLLNNFYPREAKVQWKVDNALQSGNSQESVTEQDSKDSTYSLSSTLTLSKADYEKHKVYACEVTHQGLSSPVTKSFNRGEC
